Test results reported in patent EP1986009A1.

Biological target: Recombinant human RAGE/Fc chimera (R&D Systems cat. No. 1145-RG) (human)
Assay: SPR (Biacore), 200 nM protein over immobilized RAGE/Fc, Req or late association response

Recombinant human RAGE/Fc chimera (R&D Systems cat. No. 1145-RG) (human), sequence (Q15109 23-344, change not shown, form in doubt): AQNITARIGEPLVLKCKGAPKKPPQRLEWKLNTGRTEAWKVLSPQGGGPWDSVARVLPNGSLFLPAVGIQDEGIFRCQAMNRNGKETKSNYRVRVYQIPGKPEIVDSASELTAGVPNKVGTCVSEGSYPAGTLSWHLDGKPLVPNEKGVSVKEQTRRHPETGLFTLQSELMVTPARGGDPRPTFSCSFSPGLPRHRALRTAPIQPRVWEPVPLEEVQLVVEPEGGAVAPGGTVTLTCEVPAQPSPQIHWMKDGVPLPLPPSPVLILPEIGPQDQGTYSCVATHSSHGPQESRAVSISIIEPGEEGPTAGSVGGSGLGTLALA

Recombinant S100A9, expressed as the full-length sequence of native protein in E. coli (ligand)
fold higher binding than the next group of RAGE binders (AnxII, S100A12, and S100A8/9): > 10 fold
